Laboratory results reported in PMC9876797, “Structures of the holo CRISPR RNA-guided transposon integration complex” (Nature, 2022).
Several values for one entry are separate records, joined by “and”; a condition that tells them apart may be missing. Equal entries are not always repeated. One block for each compound: values may come before it.

Columns and labels:
[1] = biological target: TnsC (ShCAST AAA+ regulator) (Scytonema hofmannii)
Target sequence in this assay (A0A8J0PCL3 entry or part of it): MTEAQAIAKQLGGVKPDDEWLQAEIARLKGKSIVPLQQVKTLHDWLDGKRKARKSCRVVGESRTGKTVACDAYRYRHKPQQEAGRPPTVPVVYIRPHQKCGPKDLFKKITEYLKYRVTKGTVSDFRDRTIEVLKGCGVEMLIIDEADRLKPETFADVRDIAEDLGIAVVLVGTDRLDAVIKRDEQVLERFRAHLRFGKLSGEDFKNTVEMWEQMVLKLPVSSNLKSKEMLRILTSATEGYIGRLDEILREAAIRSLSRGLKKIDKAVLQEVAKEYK

[2] = biological target: TnsC (ShCAST AAA+ regulator) (Scytonema hofmannii); assay: cryo-EM structure; ShCAST transpososome assembled stepwise on streptavidin beads through desthiobiotinylated target-pot DNA (Cas12k-sgRNA, S15, TniQ, TnsC, 1 mM ATP, then TnsB with donor-pot DNA), 37 °C, 20 mM HEPES pH 7.5, 250 mM KCl, 15 mM MgCl2, eluted with biotin; major (12 TnsC) and minor (13 TnsC) configurations from one data set
[3] = biological target: T1, ShCAST transpososome (TnsC in complex with TnsB, TniQ, Cas12k and S15) (Scytonema hofmannii, UniProt A0A8J0PCL3); assay: cryo-EM structure; assay type: binding; conditions: ATP with Mg2+ in all TnsC protomers; 1 mM ATP, 15 mM MgCl2, pH 7.5; also minor configuration 8EA4
T1 construct: recombinant proteins from E. coli, TwinStrep-SUMO vectors; assembled on sgRNA and strand-transfer DNA; about 961 kDa; 12 TnsC (major) or 13 TnsC (minor); S15 from E. coli K-12 MG1655; with Transposase TnsB; TniQ family protein TniQ; CRISPR-associated effector Cas12k; Small ribosomal subunit protein uS15 (Escherichia coli K-12 MG1655)
T1 sequence (A0A8J0PCL3 entry or part of it): as above
T1 sequence (A0A979HMQ2 entry or part of it, further chain): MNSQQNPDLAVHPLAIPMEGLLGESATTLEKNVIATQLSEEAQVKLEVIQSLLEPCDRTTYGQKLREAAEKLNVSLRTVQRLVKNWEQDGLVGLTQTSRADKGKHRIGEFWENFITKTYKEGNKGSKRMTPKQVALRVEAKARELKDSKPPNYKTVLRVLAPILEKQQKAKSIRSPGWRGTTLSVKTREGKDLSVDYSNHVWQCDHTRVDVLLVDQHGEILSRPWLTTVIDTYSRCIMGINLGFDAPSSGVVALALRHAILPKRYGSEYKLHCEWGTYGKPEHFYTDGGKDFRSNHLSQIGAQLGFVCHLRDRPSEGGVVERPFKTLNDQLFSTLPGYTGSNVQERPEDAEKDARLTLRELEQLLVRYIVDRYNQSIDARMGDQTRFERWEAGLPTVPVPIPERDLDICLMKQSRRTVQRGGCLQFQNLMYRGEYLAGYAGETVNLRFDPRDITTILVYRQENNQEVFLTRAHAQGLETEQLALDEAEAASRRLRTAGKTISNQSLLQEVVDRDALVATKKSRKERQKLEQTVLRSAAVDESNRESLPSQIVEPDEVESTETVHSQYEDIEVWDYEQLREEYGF
T1 sequence (A0A8J0PCL5 entry or part of it, further chain): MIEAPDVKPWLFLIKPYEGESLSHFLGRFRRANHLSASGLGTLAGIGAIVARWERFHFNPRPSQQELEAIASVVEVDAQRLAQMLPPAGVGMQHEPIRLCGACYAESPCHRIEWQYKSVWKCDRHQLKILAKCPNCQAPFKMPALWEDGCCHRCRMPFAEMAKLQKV
T1 sequence (A0A8M0FGU0 entry or part of it, further chain): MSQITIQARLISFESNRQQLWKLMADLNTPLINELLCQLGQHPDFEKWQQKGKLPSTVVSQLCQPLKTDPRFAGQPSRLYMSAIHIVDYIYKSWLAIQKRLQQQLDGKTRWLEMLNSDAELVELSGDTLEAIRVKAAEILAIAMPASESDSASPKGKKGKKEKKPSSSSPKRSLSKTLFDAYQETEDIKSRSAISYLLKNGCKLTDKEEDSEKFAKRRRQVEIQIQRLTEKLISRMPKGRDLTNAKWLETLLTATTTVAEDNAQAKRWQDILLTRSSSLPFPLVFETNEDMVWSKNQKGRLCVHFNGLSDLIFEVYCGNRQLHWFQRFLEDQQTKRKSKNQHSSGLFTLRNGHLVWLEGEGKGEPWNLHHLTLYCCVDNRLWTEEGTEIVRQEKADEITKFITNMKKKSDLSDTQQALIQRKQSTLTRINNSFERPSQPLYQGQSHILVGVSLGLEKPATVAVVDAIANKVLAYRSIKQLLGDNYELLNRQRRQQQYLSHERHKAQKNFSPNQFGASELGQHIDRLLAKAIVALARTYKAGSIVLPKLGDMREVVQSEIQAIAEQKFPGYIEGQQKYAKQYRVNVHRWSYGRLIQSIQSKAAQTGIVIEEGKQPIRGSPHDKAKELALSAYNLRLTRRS

[4] = biological target: TnsB (ShCAST transposase), wild type (Scytonema hofmannii); assay: cryo-EM structure; ShCAST transpososome assembled stepwise on streptavidin beads through desthiobiotinylated target-pot DNA (Cas12k-sgRNA, S15, TniQ, TnsC, 1 mM ATP, then TnsB with donor-pot DNA), 37 °C, 20 mM HEPES pH 7.5, 250 mM KCl, 15 mM MgCl2, eluted with biotin; major (12 TnsC) and minor (13 TnsC) configurations from one data set

on-target percentage of in vitro transposition (Illumina sequencing), in the absence of S15 [1]: < 6%
Compound: TnsB Y439A (enzyme)

stoichiometry N [2]: 12 and 13
Compound: TnsC (ShCAST AAA+ regulator) (natural protein)

Compound: Nc1ncnc2c1ncn2[C@@H]1O[C@H](COP(=O)(O)OP(=O)(O)OP(=O)(O)O)[C@@H](O)[C@H]1O [ATP]
cryo-EM structure [3]: This improved map demonstrates that ATP is bound to all protomers

on-target percentage of in vitro transposition (Illumina sequencing), in the absence of S15 [1]: 69%
on-target percentage of in vitro transposition (Illumina sequencing), with S15 [1]: 99%
stoichiometry N [4]: 4
Compound: TnsB (ShCAST transposase), wild type (enzyme)

on-target percentage of in vitro transposition (Illumina sequencing), in the absence of S15 [1]: < 6%
Compound: TnsB R432A (enzyme)
